Among the data in article PMC9352680, “A comprehensive thermodynamic model for RNA binding by the Saccharomyces cerevisiae Pumilio protein PUF4” are Kd values, retold here.

To fix the notation:
B1: Ie_S2_P4E.1_K4.1_C4.1_H4.1_A4.1_[+5CT]_F4.1_T4.1 (ssRNA)
RNA: UUUGAUUAAUAUGAUAUCGUUCUUUCUUGUAUCUAUUAUUCUUUCUCGAUAUCAUAUUAAUCUUU
B2: Ie_S2_P5E.1_K5.1_C5.1_H5.1_[+4T]_A5.1_F5.1_T5.1 (ssRNA)
RNA: UUUGAUUAAUAUGAUAUCGUUCUUUCUUGUAUUUAUUAUUCUUUCUCGAUAUCAUAUUAAUCUUU
B3: Ie_S2_P4E.1_K4.1_C4.1_H4.1_A4.1_[+5CC]_F4.1_T4.1 (ssRNA)
RNA: UUUGAUUAAUAUGAUAUCGUUCUUUCUUGUAUCCAUUAUUCUUUCUCGAUAUCAUAUUAAUCUUU
B4: Ie_S2_P4E.1_K4.1_C4.1_H4.1_A4.1_[+7TT]_F4.1_T4.1 (ssRNA)
RNA: UUUGAUUAAUAUGAUAUCGUUCUUUCUUGUAUAUUUUAUUCUUUCUCGAUAUCAUAUUAAUCUUU
B5: Ie_S2_P4E.1_K4.1_C4.1_H4.1_A4.1_[+6TC]_F4.1_T4.1 (ssRNA)
RNA: UUUGAUUAAUAUGAUAUCGUUCUUUCUUGUAUAUCUUAUUCUUUCUCGAUAUCAUAUUAAUCUUU
B6: Ie_S2_P4E.1_K4.1_C4.1_H4.1_A4.1_[+6CT]_F4.1_T4.1 (ssRNA)
RNA: UUUGAUUAAUAUGAUAUCGUUCUUUCUUGUAUACUUUAUUCUUUCUCGAUAUCAUAUUAAUCUUU
B7: Ie_S2_P5E.1_K5.1_C5.1_H5.1_A5.1_[+6C]_F5.1_T5.1 (ssRNA)
RNA: UUUGAUUAAUAUGAUAUCGUUCUUUCUUGUAUUCAUUAUUCUUUCUCGAUAUCAUAUUAAUCUUU
B8: Ie_S2_P4E.1_K4.1_C4.1_H4.1_[+4CTCTC]_A4.1_F4.1_T4.1 (ssRNA)
RNA: UUUGAUUAAUAUGAUAUCGUUCUUUCUUGUACUCUCUAUUAUUCUUUCUCGAUAUCAUAUUAAUCUUU
B9: Ie_S2_P4E.1_K4.1_C4.1_H4.1_[+4CCCTT]_A4.1_F4.1_T4.1 (ssRNA)
RNA: UUUGAUUAAUAUGAUAUCGUUCUUUCUUGUACCCUUUAUUAUUCUUUCUCGAUAUCAUAUUAAUCUUU
B10: Ie_S2_P5E.1_K5.1_C5.1_H5.1_A5.1_[+5CCCT]_F5.1_T5.1 (ssRNA)
RNA: UUUGAUUAAUAUGAUAUCGUUCUUUCUUGUAUCCCUUAUUAUUCUUUCUCGAUAUCAUAUUAAUCUUU
B11: Ie_S2_P4E.1_K4.1_C4.1_H4.1_[+4CCTCT]_A4.1_F4.1_T4.1 (ssRNA)
RNA: UUUGAUUAAUAUGAUAUCGUUCUUUCUUGUACCUCUUAUUAUUCUUUCUCGAUAUCAUAUUAAUCUUU
B12: Ie_S2_P4E.1_K4.1_C4.1_H4.1_[+4TCTCT]_A4.1_F4.1_T4.1 (ssRNA)
RNA: UUUGAUUAAUAUGAUAUCGUUCUUUCUUGUAUCUCUUAUUAUUCUUUCUCGAUAUCAUAUUAAUCUUU
B13: Ie_S2_P5E.1_K5.1_C5.1_H5.1_A5.1_[+5CCTC]_F5.1_T5.1 (ssRNA)
RNA: UUUGAUUAAUAUGAUAUCGUUCUUUCUUGUAUCCUCUAUUAUUCUUUCUCGAUAUCAUAUUAAUCUUU
B14: Ie_S2_P4E.1_K4.1_C4.1_H4.1_[+4TTCCT]_A4.1_F4.1_T4.1 (ssRNA)
RNA: UUUGAUUAAUAUGAUAUCGUUCUUUCUUGUAUUCCUUAUUAUUCUUUCUCGAUAUCAUAUUAAUCUUU
B15: Ie_S2_P4E.1_K4.1_C4.1_H4.1_A4.1_[+5TCTCT]_F4.1_T4.1 (ssRNA)
RNA: UUUGAUUAAUAUGAUAUCGUUCUUUCUUGUAUUCUCUAUUAUUCUUUCUCGAUAUCAUAUUAAUCUUU
B16: Ie_S2_P5E.1_K5.1_C5.1_H5.1_A5.1_[+5TTCC]_F5.1_T5.1 (ssRNA)
RNA: UUUGAUUAAUAUGAUAUCGUUCUUUCUUGUAUUUCCUAUUAUUCUUUCUCGAUAUCAUAUUAAUCUUU
B17: If_S2_P5E.1_K5.1_C5.1_H5.1_A5.1_F5.1_T5.1 (ssRNA)
RNA: UUUGAUUAAUAUGAUAUCGUUCUUUCUUGUAUUAUUAUUCUUUCUCGAUAUCAUAUUAAUCUUU
B18: Ie_S2_P4E.1_K4.1_C4.1_H4.1_[+4CCT]_A4.1_F4.1_T4.1 (ssRNA)
RNA: UUUGAUUAAUAUGAUAUCGUUCUUUCUUGUACCUUAUUAUUCUUUCUCGAUAUCAUAUUAAUCUUU
B19: Ie_S2_P4E.1_K4.1_C4.1_H4.1_[+4TCC]_A4.1_F4.1_T4.1 (ssRNA)
RNA: UUUGAUUAAUAUGAUAUCGUUCUUUCUUGUAUCCUAUUAUUCUUUCUCGAUAUCAUAUUAAUCUUU
B20: Ie_S2_P4E.1_K4.1_C4.1_H4.1_A4.1_F4.1_[+8CTT]_T4.1 (ssRNA)
RNA: UUUGAUUAAUAUGAUAUCGUUCUUUCUUGUAUAUUCUUAUUCUUUCUCGAUAUCAUAUUAAUCUUU
B21: Ie_S2_P4E.1_K4.1_C4.1_H4.1_A4.1_[+5CTC]_F4.1_T4.1 (ssRNA)
RNA: UUUGAUUAAUAUGAUAUCGUUCUUUCUUGUAUCUCAUUAUUCUUUCUCGAUAUCAUAUUAAUCUUU
B22: Ie_S2_P4E.1_K4.1_C4.1_H4.1_A4.1_[+6TTT]_F4.1_T4.1 (ssRNA)
RNA: UUUGAUUAAUAUGAUAUCGUUCUUUCUUGUAUAUUUUUAUUCUUUCUCGAUAUCAUAUUAAUCUUU
B23: Ie_S2_P4E.1_K4.1_C4.1_H4.1_A4.1_[+7CCT]_F4.1_T4.1 (ssRNA)
RNA: UUUGAUUAAUAUGAUAUCGUUCUUUCUUGUAUAUCCUUAUUCUUUCUCGAUAUCAUAUUAAUCUUU
B24: Ie_S2_P4E.1_K4.1_C4.1_H4.1_A4.1_[+5TCC]_F4.1_T4.1 (ssRNA)
RNA: UUUGAUUAAUAUGAUAUCGUUCUUUCUUGUAUUCCAUUAUUCUUUCUCGAUAUCAUAUUAAUCUUU
B25: Ie_S2_P5E.1_K5.1_C5.1_H5.1_A5.1_[+6CT]_F5.1_T5.1 (ssRNA)
RNA: UUUGAUUAAUAUGAUAUCGUUCUUUCUUGUAUUCUAUUAUUCUUUCUCGAUAUCAUAUUAAUCUUU
B26: Ie_S2_P5E.1_K5.1_C5.1_H5.1_[+4CT]_A5.1_F5.1_T5.1 (ssRNA)
RNA: UUUGAUUAAUAUGAUAUCGUUCUUUCUUGUACUUUAUUAUUCUUUCUCGAUAUCAUAUUAAUCUUU
B27: Ie_S2_P5E.1_K5.1_C5.1_H5.1_[+4TC]_A5.1_F5.1_T5.1 (ssRNA)
RNA: UUUGAUUAAUAUGAUAUCGUUCUUUCUUGUAUCUUAUUAUUCUUUCUCGAUAUCAUAUUAAUCUUU
B28: Ie_S2_P4E.1_K4.1_C4.1_H4.1_A4.1_[+6CCT]_F4.1_T4.1 (ssRNA)
RNA: UUUGAUUAAUAUGAUAUCGUUCUUUCUUGUAUACCUUUAUUCUUUCUCGAUAUCAUAUUAAUCUUU
B29: Ie_S2_P5E.1_K5.1_C5.1_H5.1_[+4TT]_A5.1_F5.1_T5.1 (ssRNA)
RNA: UUUGAUUAAUAUGAUAUCGUUCUUUCUUGUAUUUUAUUAUUCUUUCUCGAUAUCAUAUUAAUCUUU
B30: Ie_S2_P4E.1_K4.1_C4.1_H4.1_A4.1_[+5TTC]_F4.1_T4.1 (ssRNA)
RNA: UUUGAUUAAUAUGAUAUCGUUCUUUCUUGUAUUUCAUUAUUCUUUCUCGAUAUCAUAUUAAUCUUU
B31: Ie_S2_P4E.1_K4.1_C4.1_H4.1_A4.1_[+5CTCT]_F4.1_T4.1 (ssRNA)
RNA: UUUGAUUAAUAUGAUAUCGUUCUUUCUUGUAUCUCUAUUAUUCUUUCUCGAUAUCAUAUUAAUCUUU
B32: Ie_S2_P4E.1_K4.1_C4.1_H4.1_A4.1_[+7CTCT]_F4.1_T4.1 (ssRNA)
RNA: UUUGAUUAAUAUGAUAUCGUUCUUUCUUGUAUAUCUCUUAUUCUUUCUCGAUAUCAUAUUAAUCUUU
B33: Ie_S2_P4E.1_K4.1_C4.1_H4.1_A4.1_[+6CTCT]_F4.1_T4.1 (ssRNA)
RNA: UUUGAUUAAUAUGAUAUCGUUCUUUCUUGUAUACUCUUUAUUCUUUCUCGAUAUCAUAUUAAUCUUU
B34: Ie_S2_P5E.1_K5.1_C5.1_H5.1_A5.1_[+5TCC]_F5.1_T5.1 (ssRNA)
RNA: UUUGAUUAAUAUGAUAUCGUUCUUUCUUGUAUUCCUAUUAUUCUUUCUCGAUAUCAUAUUAAUCUUU
B35: Ie_S2_P4E.1_K4.1_C4.1_H4.1_[+4CCCT]_A4.1_F4.1_T4.1 (ssRNA)
RNA: UUUGAUUAAUAUGAUAUCGUUCUUUCUUGUACCCUUAUUAUUCUUUCUCGAUAUCAUAUUAAUCUUU
B36: Ie_S2_P5E.1_K5.1_C5.1_H5.1_A5.1_[+6CTC]_F5.1_T5.1 (ssRNA)
RNA: UUUGAUUAAUAUGAUAUCGUUCUUUCUUGUAUUCUCAUUAUUCUUUCUCGAUAUCAUAUUAAUCUUU
B37: Ie_S2_P4E.1_K4.1_C4.1_H4.1_A4.1_[+6CCTC]_F4.1_T4.1 (ssRNA)
RNA: UUUGAUUAAUAUGAUAUCGUUCUUUCUUGUAUACCUCUUAUUCUUUCUCGAUAUCAUAUUAAUCUUU
B38: Ie_S2_P4E.1_K4.1_C4.1_H4.1_A4.1_[+5TTCC]_F4.1_T4.1 (ssRNA)
RNA: UUUGAUUAAUAUGAUAUCGUUCUUUCUUGUAUUUCCAUUAUUCUUUCUCGAUAUCAUAUUAAUCUUU
B39: Ic_S2_P3E.1_K3.1_C3.1_H3.1_A3.1_[A6C]_F3.1_[A8C]_T3.1 (ssRNA)
RNA: UUUGAUUAAUAUGAUAUCGUUCUUUCUUGUAUCUCUUCUUUCUCGAUAUCAUAUUAAUCUUU
B40: Ib_S2_P3E.1_K3.1_C3.1_H3.1_A3.1_[A6T]_F3.1_[A8C]_T3.1 (ssRNA)
RNA: UUUGAUUAAUAUGAUAUCGUUCUUUCUUGUAUUUCUUCUUUCUCGAUAUCAUAUUAAUCUUU
B41: Ic_S2_P3E.1_K3.1_C3.1_H3.1_A3.1_[A6C]_F3.1_[A8T]_T3.1 (ssRNA)
RNA: UUUGAUUAAUAUGAUAUCGUUCUUUCUUGUAUCUUUUCUUUCUCGAUAUCAUAUUAAUCUUU
B42: Ib_S2_P3E.1_K3.1_C3.1_H3.1_A3.1_[A6G]_F3.1_[A8T]_T3.1 (ssRNA)
RNA: UUUGAUUAAUAUGAUAUCGUUCUUUCUUGUAUGUUUUCUUUCUCGAUAUCAUAUUAAUCUUU

The data set has as its target T1, PUF4 RNA-binding domain (Saccharomyces cerevisiae, UniProt P25339 537-888).
T1 sequence: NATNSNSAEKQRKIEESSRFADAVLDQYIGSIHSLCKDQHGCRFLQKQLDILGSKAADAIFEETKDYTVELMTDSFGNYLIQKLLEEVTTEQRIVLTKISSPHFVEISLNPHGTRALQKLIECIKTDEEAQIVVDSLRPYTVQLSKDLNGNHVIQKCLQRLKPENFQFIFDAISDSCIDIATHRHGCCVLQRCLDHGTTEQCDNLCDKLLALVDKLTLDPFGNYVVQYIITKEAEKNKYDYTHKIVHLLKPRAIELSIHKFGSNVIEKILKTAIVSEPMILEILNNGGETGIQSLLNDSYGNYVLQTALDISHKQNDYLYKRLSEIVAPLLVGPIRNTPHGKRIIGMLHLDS
Put plainly: Mg; RNA-MaP; 20 mM Na-HEPES pH 7.4, 30 mM KOAc, 0.75 mM MgCl2, 0.1% Tween-20, 5% glycerol, 0.1 mg/mL BSA, 2 mM DTT; 25 C; 0.0125-409.6 nM protein. The conditions noted are these: tags: N-His6-TEV cleaved; C-SNAP kept, Cy3B-labelled; label: tethered on chip by stalled RNA polymerase.
For the molecule B1, the Kd (commonly a measure of binding affinity in units of concentration) was 5.74 nM. In the case of B2, the affinity, expressed as Kd, was 11.6 nM. In the case of B3 it was 20.2 nM; in that of B4, 2.3 nM; in that of B5, 4.55 nM. In the case of B6 it was 3.75 nM; in that of B7, 25.6 nM. As to B8, the equilibrium dissociation constant (Kd) stood at 6.5 nM. B9 showed a Kd of 5.28 nM. This Kd and that of the molecule before are within 1.5-fold of each other. For B10, the Kd came out at 11.9 nM. In the case of B11 it was 5.57 nM. Take B12: the affinity, expressed as Kd, was 7.16 nM. The Kd values of the last two molecules are within 1.5-fold of each other.

The molecule B13 gave a Kd of 10.2 nM. Take B14: the affinity, expressed as Kd, was 8 nM. Turning to B15, the Kd came to 7.74 nM. Regarding B16, binding was characterised by a dissociation constant (Kd) of 7.16 nM. The Kd values of the last two molecules are within 1.5-fold of each other. To B17 belongs 1.92 nM; to B18, 1.13 nM. As for B19, the Kd was 2.35 nM. In the case of B20 it was 4.6 nM; in that of B21, 26.1 nM. In the case of B22 it was 3.88 nM. To B23 belongs 10.6 nM. B24: the Kd turned out to be 46.4 nM. B25 displayed a Kd of 1.41 nM.

With B26, the Kd was found to be 0.922 nM.

B27 came in with a Kd of 1.55 nM.

On to B28, for which the Kd was 12.7 nM.

On to B29, for which binding was put at a Kd of 1.57 nM. Against the preceding molecule, the Kd is about 8.1-fold lower.

For the molecule B30, the Kd was determined as 29.9 nM. To B31 belongs 4.51 nM. To B32 belongs 12.8 nM. In the case of B33 it was 6.3 nM; in that of B34, 4.58 nM.

Molecule B35 registered a Kd of 1.96 nM.

Molecule B36 yielded a Kd of 18.7 nM.

The molecule B37 came in with a Kd of 14.8 nM.

With B38, binding was put at a Kd of 47.7 nM. To B39 belongs 15.4 nM; to B40, 29.3 nM. To B41 belongs 9.3 nM; to B42, 22.5 nM.
